This test addresses Human ACE2-hIgG1Fc (human) (UniProt Q9BYF1). Put plainly: SPR.

What is called Kd is the free concentration of one partner at which half of the binding sites on the other are occupied at equilibrium, for simple one-to-one binding. High values mean weaker binding, low ones tighter binding. For orientation: koff means the rate constant with which the complex falls apart. Read a high koff as a short-lived complex.

Sequence of Human ACE2-hIgG1Fc (human) (Q9BYF1 18-740): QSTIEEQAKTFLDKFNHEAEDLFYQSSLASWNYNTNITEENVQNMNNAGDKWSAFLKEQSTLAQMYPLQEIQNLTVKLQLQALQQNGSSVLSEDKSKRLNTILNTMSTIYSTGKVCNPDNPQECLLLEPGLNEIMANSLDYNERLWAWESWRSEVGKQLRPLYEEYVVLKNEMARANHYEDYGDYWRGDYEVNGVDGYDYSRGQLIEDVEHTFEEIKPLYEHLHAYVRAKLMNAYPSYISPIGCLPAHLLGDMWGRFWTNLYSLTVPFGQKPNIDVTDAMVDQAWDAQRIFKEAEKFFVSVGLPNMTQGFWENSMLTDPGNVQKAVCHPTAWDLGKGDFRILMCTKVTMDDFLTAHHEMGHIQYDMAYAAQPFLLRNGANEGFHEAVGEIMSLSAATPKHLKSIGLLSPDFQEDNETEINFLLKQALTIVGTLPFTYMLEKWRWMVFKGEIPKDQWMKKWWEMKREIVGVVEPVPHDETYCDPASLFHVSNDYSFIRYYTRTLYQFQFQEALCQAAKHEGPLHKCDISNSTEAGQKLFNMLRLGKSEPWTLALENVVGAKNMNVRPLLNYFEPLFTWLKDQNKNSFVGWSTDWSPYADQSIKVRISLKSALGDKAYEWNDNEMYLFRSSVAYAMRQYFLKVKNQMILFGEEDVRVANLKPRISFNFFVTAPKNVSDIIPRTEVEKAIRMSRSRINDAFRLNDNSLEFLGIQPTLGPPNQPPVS

In the case of Wuhan RBD, the Kd is 7.3 nM and the koff is 0.0051 s⁻¹.

These data come from article PMC9181312.
